Assay results as given in US8309097B2, “C-type lectin binding molecules, identification and uses thereof” (Vereniging voor Christelijk Wetenschappelijk Onderwijs, priority 2002, dated 2012).

How the values were obtained:
DC-SIGN-Fc [1] = molecular target: T1, DC-SIGN-Fc (Homo sapiens, UniProt Q9NNX6); test: Soluble DC-SIGN-Fc adhesion assay (Fc ELISA); conditions: ELISA, ligand coated
T1 sequence (Q9NNX6 64-404): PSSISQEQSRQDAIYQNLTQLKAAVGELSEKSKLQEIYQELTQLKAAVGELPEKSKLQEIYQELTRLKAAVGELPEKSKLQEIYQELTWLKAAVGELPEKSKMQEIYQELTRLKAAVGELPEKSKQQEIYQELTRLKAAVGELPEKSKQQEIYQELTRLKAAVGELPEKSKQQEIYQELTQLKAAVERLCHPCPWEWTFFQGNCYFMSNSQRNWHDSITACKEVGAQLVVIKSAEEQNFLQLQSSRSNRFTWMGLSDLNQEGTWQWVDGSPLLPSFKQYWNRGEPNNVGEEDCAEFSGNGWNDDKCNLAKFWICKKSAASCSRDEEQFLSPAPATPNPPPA

[2] = molecular target: T2, DC-SIGN expressed by K562 transfectants (Homo sapiens, UniProt Q9NNX6); assay type: cell-based
T2 construct: expressed in transfected cells; host or cells: K562
T2 sequence (Q9NNX6 1-404): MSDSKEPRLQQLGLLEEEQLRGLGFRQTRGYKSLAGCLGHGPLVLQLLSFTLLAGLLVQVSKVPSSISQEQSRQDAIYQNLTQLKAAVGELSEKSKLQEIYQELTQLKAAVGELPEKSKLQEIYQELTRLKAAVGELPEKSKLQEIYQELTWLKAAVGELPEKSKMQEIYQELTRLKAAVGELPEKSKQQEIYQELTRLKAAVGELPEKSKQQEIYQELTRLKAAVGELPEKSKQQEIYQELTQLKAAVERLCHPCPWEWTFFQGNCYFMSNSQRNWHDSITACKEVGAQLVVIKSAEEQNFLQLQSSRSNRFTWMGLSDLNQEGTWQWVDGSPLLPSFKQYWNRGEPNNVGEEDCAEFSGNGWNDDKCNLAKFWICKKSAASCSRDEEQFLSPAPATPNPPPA

[3] = molecular target: T3, DC-SIGN on immature monocyte derived DC (Homo sapiens, UniProt Q9NNX6); test: Fluorescent bead adhesion assay, immature DC; assay type: cell-based
T3 construct: Immature DC were cultured from monocytes in the presence of IL-4 and GM-CSF; endogenous in cells; host or cells: immature monocyte-derived dendritic cells
T3 sequence (Q9NNX6 1-404): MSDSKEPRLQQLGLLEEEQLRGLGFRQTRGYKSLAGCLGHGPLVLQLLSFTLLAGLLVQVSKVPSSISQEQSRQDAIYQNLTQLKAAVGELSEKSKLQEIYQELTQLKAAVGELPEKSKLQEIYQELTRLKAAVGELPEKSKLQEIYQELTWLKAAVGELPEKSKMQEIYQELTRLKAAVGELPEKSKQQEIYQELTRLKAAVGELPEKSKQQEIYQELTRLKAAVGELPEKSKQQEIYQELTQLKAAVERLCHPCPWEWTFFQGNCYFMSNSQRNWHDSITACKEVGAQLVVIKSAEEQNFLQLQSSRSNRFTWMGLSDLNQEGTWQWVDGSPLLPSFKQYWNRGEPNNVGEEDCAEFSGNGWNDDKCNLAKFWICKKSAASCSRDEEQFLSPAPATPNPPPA

DC-SIGN-Fc [4] = molecular target: T1, DC-SIGN-Fc; test: Immunoprecipitation and detection with DC-SIGN-Fc; assay type: binding
Excerpt: FIG. 59. […] Cell-surface proteins are biotinylated and PMNs are lysed. Lane 1. negative control using ICAM-3 Fc to capture by IP proteins. Detection is peroxidase-labeled streptavidin. Lane 2. DC-SIGN-Fc is used to capture ligands biotinylated ligands from lysate; two protein bands are visible, the upper band consists of CD11b and CD66a, whereas the lower consists of CD18. Lane 3. Negative control; no bands are immune precipitated with anti-DC-SIGN antibodies. Lane 4, IP with antibodies against CD66acd; a faint band is visible containing CD66a. Lane 5, IP of CD11b; two bands are visible; the upper band is […] and the lower band is CD18m, which is co-immuneprecipitated with […]. Lane 6. IP with DC-SIGN ligands and detection with anti-CD66acd; CD66a is captured by DC-SIGN Fc. Lane 7. IP with DC-SIGN ligands and detection with anti-CD11b; CD11b is captured by DC-SIGN Fc. Lane 8. Negative control, IP with anti-DC-SIGN antibodies and detection with DC-SIGN-Fc. Lane 9. IP with anti-CD66acd and detection with DC-SIGN Fc; CD66a is bound by DC-SIGN on blot. Lane 10. IP with anti-CD11a and detection with DC-SIGN Fc; CD11a is bound by DC-SIGN on blot.
Immunoprecipitation. […]

B1: ICAM-3: cellular ligand of DC-SIGN (protein)
chain: QEFLLRVEPQNPVLSAGGSLFVNCSTDCPSSEKIALETSLSKELVASGMGWAAFNLSNVTGNSRILCSVYCNGSQITGSSNITVYRLPERVELAPLPPWQPVGQNFTLRCQVEDGSPRTSLTVVLLRWEEELSRQPAVEEPAEVTATVLASRDDHGAPFSCRTELDMQPQGLGLFVNTSAPRQLRTFVLPVTPPRLVAPRFLEVETSWPVDCTLDGLFPASEAQVYLALGDQMLNATVMNHGDTLTATATATARADQEGAREIVCNVTLGGERREARENLTVFSFLGPIVNLSEPTAHEGSTVTVSCMAGARVQVTLDGVPAAAPGQPAQLQLNATESDDGRSFFCSATLEVDGEFLHRNSSVQLRVLYGPKIDRATCPQHLKWKDKTRHVLQCQARGNPYPELRCLKEGSSREVPVGIPFFVNVTHNGTYQCQASSSRGKYTLVVVMDIEAGSSH
binding of DC-SIGN-Fc to coated ligand (DC-SIGN-Fc [1]): does not recognize

B2: CEACAM1: native CEACAM1 (CD66) from PMN (protein, UniProt P13688 35-526, looked up)
Cell adhesion molecule CEACAM1: QLTTESMPFNVAEGKEVLLLVHNLPQQLFGYSWYKGERVDGNRQIVGYAIGTQQATPGPANSGRETIYPNASLLIQNVTQNDTGFYTLQVIKSDLVNEEATGQFHVYPELPKPSISSNNSNPVEDKDAVAFTCEPETQDTTYLWWINNQSLPVSPRLQLSNGNRTLTLLSVTRNDTGPYECEIQNPVSANRSDPVTLNVTYGPDTPTISPSDTYYRPGANLSLSCYAASNPPAQYSWLINGTFQQSTQELFIPNITVNNSGSYTCHANNSVTGCNRTTVKTIIVTELSPVVAKPQIKASKTTVTGDKDSVNLTCSTNDTGISIRWFFKNQSLPSSERMKLSQGNTTLSINPVKREDAGTYWCEVFNPISKNQSDPIMLNVNYNALPQENGLSPGAIAGIVIGVVALVALIAVALACFLHFGKTGRASDQRDLTEHKPSVSNHTQDHSNDPPNKMNEVTYSTLNFEAQQPTQPTSASPSLTATEIIYSEVKKQ
binding of ligand-coated beads to K562 DC-SIGN transfectants [2]: binds | binding of ligand-coated beads to immature DC [3]: binds | binding of DC-SIGN-Fc to coated ligand (DC-SIGN-Fc [1]): is a ligand of DC-SIGN

B3: CD66e: tumor antigen CEA from SW948 tumor cell lysate (protein, UniProt P06731 35-685, looked up)
Cell adhesion molecule CEACAM5: KLTIESTPFNVAEGKEVLLLVHNLPQHLFGYSWYKGERVDGNRQIIGYVIGTQQATPGPAYSGREIIYPNASLLIQNIIQNDTGFYTLHVIKSDLVNEEATGQFRVYPELPKPSISSNNSKPVEDKDAVAFTCEPETQDATYLWWVNNQSLPVSPRLQLSNGNRTLTLFNVTRNDTASYKCETQNPVSARRSDSVILNVLYGPDAPTISPLNTSYRSGENLNLSCHAASNPPAQYSWFVNGTFQQSTQELFIPNITVNNSGSYTCQAHNSDTGLNRTTVTTITVYAEPPKPFITSNNSNPVEDEDAVALTCEPEIQNTTYLWWVNNQSLPVSPRLQLSNDNRTLTLLSVTRNDVGPYECGIQNELSVDHSDPVILNVLYGPDDPTISPSYTYYRPGVNLSLSCHAASNPPAQYSWLIDGNIQQHTQELFISNITEKNSGLYTCQANNSASGHSRTTVKTITVSAELPKPSISSNNSKPVEDKDAVAFTCEPEAQNTTYLWWVNGQSLPVSPRLQLSNGNRTLTLFNVTRNDARAYVCGIQNSVSANRSDPVTLDVLYGPDTPIISPPDSSYLSGANLNLSCHSASNPSPQYSWRINGIPQQHTQVLFIAKITPNNNGTYACFVSNLATGRNNSIVKSITVSASGTSPGLSA
binding of DC-SIGN-Fc to immunoprecipitated ligand (DC-SIGN-Fc [4]): binds | binding of DC-SIGN-Fc after α-1,3,4 Fucosidase treatment of the ligand (DC-SIGN-Fc [4]; immunoprecipitation): abrogated | binding of DC-SIGN-Fc to coated ligand (DC-SIGN-Fc [1]): bound

B4: RNAseB: control inhibitor in DC adhesion assay (protein, UniProt P61823 27-150, looked up)
Ribonuclease pancreatic: KETAAAKFERQHMDSSTSAASSSNYCNQMMKSRNLTKDRCKPVNTFVHESLADVQAVCSQKNVACKNGQTNCYQSYSTMSITDCRETGSSKYPNCAYKTTQANKHIIVACEGNPYVPVHFDASV
modifications: glycoform B
inhibition of HIV-1 gp120 adhesion to DC [3]: does not block | inhibition of ICAM-3 adhesion to DC ([3]; inhibitors 20 μg/ml): does not block
